Test results reported in the supplement of paper PMC9170038.

Test system: MS2 coat protein
Assay: apparent KD of MS2 coat protein; designed switch direction (-1 OFF switch, 1 ON switch): 1; higher = weaker reporter binding
Procedure, shortened: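 Three titration conditions were used: no input, 200 uM small-molecule ligand, and an oligonucleotide input. In each, SNAP-549-labelled MS2 coat protein was raised from 0.7 or 1.5 nM, doubling, to 3 µM over designed RNA switches transcribed on Illumina chips by stalled E. coli RNA polymerase. Curve fits of normalised cluster fluorescence gave values whose per-design median over clusters is the apparent KD.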

[1] = Eterna round: R95, input ligand: FMN 200 uM
[2] = Eterna round: R95, input ligand: microRNA oligo, concentration not stated
[3] = Eterna round: R95, input ligand: none
[4] = input ligand: microRNA oligo, concentration not stated

Sequence	apparent KD of MS2 coat protein [1]	apparent KD of MS2 coat protein [2]	apparent KD of MS2 coat protein [3]	apparent KD of MS2 coat protein (input ligand: FMN 200 uM)	apparent KD of MS2 coat protein [4]	apparent KD of MS2 coat protein (input ligand: none)
UUUUUUAAGACGAGACAAGCUUUUUGAUCACAUGAGGAUCACCCAUGUCUCGUCUUAUUUUUUUUUUUUUUUUUUUU [BA Sensor hsa-mir-208a - 2 - 3] (puzzle: Sensor for hsa-mir-208a)	21.4 nM	5.76 nM	16.9 nM	–	–	–
GUAUAACAUGAGGAUCACCCAUGUCAUCUAAGUCGAGGAUAUGGGAAUUAAUUAAUUAAACCAGAAGGCGAAAAUU [Mat - Same State 1 - D92] (puzzle: Same State 1)	79 nM	364 nM	492 nM	–	–	–
AGCUAGUACCAAGGAUAUACGAACAUGAGGAUCACCCAUGUAUACAUGGUUUAAUGAGACUACAUGUAGAAGGUGGUACUAGCA [SameState NG2 #12] (Eterna round: R96, puzzle: Same State NG 2)	–	–	–	387 nM	338 nM	538 nM
CGUCCAGCCUGAGCUGGACAAAAGCAUGUACAUGAGGAUCACCCAUGUUCAUGUACAAGCUUUUUGCUCGUCUUACC [salish99_208a_r3_094x] (Eterna round: R96, puzzle: Sensor for hsa-mir-208a)	–	–	–	760 nM	14.3 nM	752 nM
UGGUACAUGGGAGGAUAUCAUGUAGAAACAUGAGGAUCACCCAUGUAGAUGGCCGGUAACCGGGAUGAGAAGGCCCAUGUACCU [JL SSNG1 3.64] (Eterna round: R96, puzzle: Same State NG 2)	–	–	–	27 nM	22.4 nM	30.3 nM
GCGGAACAUGAGGAUCACCCAUGUAAAGGGUGUAAAGGAUAUUAUUGGGAGAAGGUAGGGUAAGAAGGUUGCUUGG [JR_SS1_Sub088] (puzzle: Same State 1)	609 nM	666 nM	1240 nM	–	–	–
UCUUGGUUUUUGCUCGUUUUUUGUGUUGAACAUGAGGAUCACCCAUGUAUUGUACGGUCCGAUUUGAUGAUGGUCCA [JMF 42] (puzzle: Sensor for hsa-mir-208a)	31.4 nM	22.2 nM	35.1 nM	–	–	–
UAGUGCAUUAGAGGAUAUUCUUACGACACGAGUAAGACAUGAGGAUCUCCCAUGUUGUGGCAUGGGAAGAAGGCUGAUGUGCUA [Omei SS(NG)2 Bv8] (Eterna round: R96, puzzle: Same State NG 2)	–	–	–	52.5 nM	6.84 nM	155 nM
AGCGCGGUCUCGCAGGAUAUCCACAAUCCUACAUGAGGAUCACCCAUGUCGCUGCAGGAUAUUAGGGAGAAGGGUGAUGCCGCGC [Riorge] (puzzle: Same State 2)	–	25.2 nM	–	–	–	–
AGAUCAUGACGAGGAUAUGGUACAUGAGGAUCACCCAUGUAUGUACUAUAACCCGUAUGAGGAAUCCAGAAGGCGUCGUGGUCA [JL SSNG2 1.17] (Eterna round: R96, puzzle: Same State NG 2)	–	–	–	23.8 nM	71.8 nM	85.9 nM
GUGCUCGUGUGAGGAUAUGCGGCCGGGUCGGCUGCAGAAGGUACUAUUAUACAUGAGGAUCACCCAUGUCGCUUUUCUCCGGUG [salish99_SSNG1_r04_919] (Eterna round: R96, puzzle: Same State NG 1)	–	–	–	62.5 nM	41.2 nM	49 nM
GCUCGUGGUAUUGUCUACAUGAGGAUCACCCAUGUAGGUGCGGAGGAUAUUUACGUGUCUCAUGUAGAGAAGGCCGUCACGAGC [SameState NG3 #97] (Eterna round: R96, puzzle: Same State NG 3)	–	–	–	52.2 nM	190 nM	297 nM
GCUCGAUGAUAGUCCUACAUGAGGAUCACCCAUGUAAGUGGGCAGGAUAUCUACAUGCAGAAUGUAGAGAAGGGCCCGUCGAGC [SameState NG3 #56] (Eterna round: R96, puzzle: Same State NG 3)	–	–	–	16.1 nM	16.4 nM	23.2 nM
